Results as given in patent publication US20110312897.

Test system: C-terminally 6xHIS tagged, full-length recombinant histone H3

Row | Substance | H3 cleavage assay with pre-activated enzyme, immunoblot with HIS and H3.cs1 antibodies
1 | recombinant Cathepsin B (R&D Systems Cat No. BAF965) | Cathepsin B cleaves rH3 with a distinct pattern from Cathepsins K or L and does not significantly produce the H3.cs1 epitope
2 | recombinant Cathepsin K (Calbiochem Cat. No. 342001) | Cathepsin K produces a similar pattern to Cathepsin L under these assay conditions
